Results on four substances are retold here after patent US20230241187A1.

Experiment [1] addresses insulin receptor (IR). The experiment is described as follows: competition ELISA, plate-bound Insulin-R, 20 nM insulin-biotin, competitor 1.95313 nM, average. For orientation: In an ELISA, binding on a coated surface is turned into a signal by an enzyme label.
In experiment [2] the target is insulin receptor (IR). In words: competition ELISA, plate-bound Insulin-R, 20 nM insulin-biotin, competitor 15.625 nM, replicate 2.
Experiment [3] has as its target insulin receptor (IR). In words: competition ELISA, plate-bound Insulin-R, 20 nM insulin-biotin, competitor 1000 nM, replicate 2.
In experiment [4] the target is insulin receptor (IR). The experiment is described as follows: competition ELISA, plate-bound Insulin-R, 20 nM insulin-biotin, competitor 2000 nM, average.
In experiment [5] the target is insulin receptor (IR). The experiment is described as follows: competition ELISA, plate-bound Insulin-R, 20 nM insulin-biotin, competitor 31.25 nM, replicate 1.
Experiment [6] concerns the target insulin receptor (IR). The experiment is described as follows: competition ELISA, plate-bound Insulin-R, 20 nM insulin-biotin, competitor 1000 nM, average.
The target in experiment [7] is insulin receptor (IR). The experiment is described as follows: competition ELISA, plate-bound Insulin-R, 20 nM insulin-biotin, competitor 15.625 nM, replicate 1.
Experiment [8] deals with insulin receptor (IR). The experiment is described as follows: competition ELISA, plate-bound Insulin-R, 20 nM insulin-biotin, competitor 3.90625 nM, replicate 1.
The target of experiment [9] is insulin receptor (IR). The experiment is described as follows: competition ELISA, plate-bound Insulin-R, 20 nM insulin-biotin, competitor 250 nM, average.
Experiment [10] deals with insulin receptor (IR). In words: competition ELISA, plate-bound Insulin-R, 20 nM insulin-biotin, competitor 500 nM, average.
In experiment [11] the target is insulin receptor (IR). The experiment is described as follows: competition ELISA, plate-bound Insulin-R, 20 nM insulin-biotin, competitor 500 nM, replicate 2.
Experiment [12] has as its target insulin receptor (IR). The experiment is described as follows: competition ELISA, plate-bound Insulin-R, 20 nM insulin-biotin, competitor 250 nM, replicate 1.
In experiment [13] the target is insulin receptor (IR). The experiment is described as follows: competition ELISA, plate-bound Insulin-R, 20 nM insulin-biotin, competitor 15.625 nM, average.
The target of experiment [14] is insulin receptor (IR). In words: competition ELISA, plate-bound Insulin-R, 20 nM insulin-biotin, competitor 62.5 nM, replicate 1.
Experiment [15] addresses insulin receptor (IR). The experiment is described as follows: competition ELISA, plate-bound Insulin-R, 20 nM insulin-biotin, competitor 62.5 nM, average.
Experiment [16] concerns the target insulin receptor (IR). The experiment is described as follows: competition ELISA, plate-bound Insulin-R, 20 nM insulin-biotin, competitor […], replicate 1.
Experiment [17] addresses insulin receptor (IR). The experiment is described as follows: competition ELISA, plate-bound Insulin-R, 20 nM insulin-biotin, competitor 2000 nM, replicate 1.
The target in experiment [18] is insulin receptor (IR). In words: competition ELISA, plate-bound Insulin-R, 20 nM insulin-biotin, competitor 31.25 nM, average.
The target of experiment [19] is insulin receptor (IR). The experiment is described as follows: competition ELISA, plate-bound Insulin-R, 20 nM insulin-biotin, competitor 1.95313 nM, replicate 2.
Experiment [20] concerns the target insulin receptor (IR). In words: competition ELISA, plate-bound Insulin-R, 20 nM insulin-biotin, competitor […], replicate 2.
The target in experiment [21] is insulin receptor (IR). In words: competition ELISA, plate-bound Insulin-R, 20 nM insulin-biotin, competitor 2000 nM, replicate 2.
Experiment [22] addresses insulin receptor (IR). In words: competition ELISA, plate-bound Insulin-R, 20 nM insulin-biotin, competitor 7.8125 nM, average.
The target in experiment [23] is insulin receptor (IR). The experiment is described as follows: competition ELISA, plate-bound Insulin-R, 20 nM insulin-biotin, competitor 7.8125 nM, replicate 2.
In experiment [24] the target is insulin receptor (IR). The experiment is described as follows: competition ELISA, plate-bound Insulin-R, 20 nM insulin-biotin, competitor 500 nM, replicate 1.
Experiment [25] deals with insulin receptor (IR). In words: competition ELISA, plate-bound Insulin-R, 20 nM insulin-biotin, competitor 3.90625 nM, replicate 2.
In experiment [26] the target is insulin receptor (IR). The experiment is described as follows: competition ELISA, plate-bound Insulin-R, 20 nM insulin-biotin, competitor 3.90625 nM, average.
The target in experiment [27] is insulin receptor (IR). In words: competition ELISA, plate-bound Insulin-R, 20 nM insulin-biotin, competitor 31.25 nM, replicate 2.
Experiment [28] deals with insulin receptor (IR). The experiment is described as follows: competition ELISA, plate-bound Insulin-R, 20 nM insulin-biotin, competitor 1000 nM, replicate 1.
Experiment [29] concerns the target insulin receptor (IR). The experiment is described as follows: competition ELISA, plate-bound Insulin-R, 20 nM insulin-biotin, competitor 1.95313 nM, replicate 1.
The target in experiment [30] is insulin receptor (IR). In words: competition ELISA, plate-bound Insulin-R, 20 nM insulin-biotin, competitor […], average.
Experiment [31] concerns the target insulin receptor (IR). In words: competition ELISA, plate-bound Insulin-R, 20 nM insulin-biotin, competitor 250 nM, replicate 2.
For experiment [32], the target named is insulin receptor (IR). The experiment is described as follows: competition ELISA, plate-bound Insulin-R, 20 nM insulin-biotin, competitor 62.5 nM, replicate 2.
The target of experiment [33] is insulin receptor (IR). In words: competition ELISA, plate-bound Insulin-R, 20 nM insulin-biotin, competitor 7.8125 nM, replicate 1.
The target of experiment [34] is insulin receptor (IR). The experiment is described as follows: plate-bound Insulin-R, 20 nM insulin-biotin, 0 nM competitor (ZC701B20 series), replicate 1.
Experiment [35] has as its target insulin receptor (IR). The experiment is described as follows: plate-bound Insulin-R, 20 nM insulin-biotin, 0 nM competitor (Insulin series), replicate 2.
Experiment [36] concerns the target insulin receptor (IR). The experiment is described as follows: plate-bound Insulin-R, 20 nM insulin-biotin, 0 nM competitor (ZC701B20 series), replicate 2.
Experiment [37] concerns the target insulin receptor (IR). The experiment is described as follows: plate-bound Insulin-R, 20 nM insulin-biotin, 0 nM competitor (ZC1487B26 series), replicate 2.
Experiment [38] concerns the target insulin receptor (IR). The experiment is described as follows: plate-bound Insulin-R, 20 nM insulin-biotin, 0 nM competitor (ZC1487B26 series), replicate 1.
Experiment [39] concerns the target insulin receptor (IR). The experiment is described as follows: plate-bound Insulin-R, 20 nM insulin-biotin, 0 nM competitor (ZC701B20 series), average.
The target of experiment [40] is insulin receptor (IR). The experiment is described as follows: plate-bound Insulin-R, 20 nM insulin-biotin, 0 nM competitor (ZC1487B26 series), average.
For experiment [41], the target named is insulin receptor (IR). The experiment is described as follows: plate-bound Insulin-R, 20 nM insulin-biotin, 0 nM competitor (IFG-II series), average.
For experiment [42], the target named is insulin receptor (IR). The experiment is described as follows: plate-bound Insulin-R, 20 nM insulin-biotin, 0 nM competitor (Insulin series), replicate 1.
For experiment [43], the target named is insulin receptor (IR). In words: plate-bound Insulin-R, 20 nM insulin-biotin, 0 nM competitor (IFG-II series), replicate 1.
The target of experiment [44] is insulin receptor (IR). In words: plate-bound Insulin-R, 20 nM insulin-biotin, 0 nM competitor (IFG-II series), replicate 2.
Experiment [45] concerns the target insulin receptor (IR). The experiment is described as follows: plate-bound Insulin-R, 20 nM insulin-biotin, 0 nM competitor (Insulin series), average.
Experiment [46] concerns the target ConA (ConA-sepharose beads). In words: pull-down on ConA-sepharose beads, GUS activity in flow through.

Sequence of periodate/borohydride modified ß-glucuronidase (enzyme) (P08236 23-651): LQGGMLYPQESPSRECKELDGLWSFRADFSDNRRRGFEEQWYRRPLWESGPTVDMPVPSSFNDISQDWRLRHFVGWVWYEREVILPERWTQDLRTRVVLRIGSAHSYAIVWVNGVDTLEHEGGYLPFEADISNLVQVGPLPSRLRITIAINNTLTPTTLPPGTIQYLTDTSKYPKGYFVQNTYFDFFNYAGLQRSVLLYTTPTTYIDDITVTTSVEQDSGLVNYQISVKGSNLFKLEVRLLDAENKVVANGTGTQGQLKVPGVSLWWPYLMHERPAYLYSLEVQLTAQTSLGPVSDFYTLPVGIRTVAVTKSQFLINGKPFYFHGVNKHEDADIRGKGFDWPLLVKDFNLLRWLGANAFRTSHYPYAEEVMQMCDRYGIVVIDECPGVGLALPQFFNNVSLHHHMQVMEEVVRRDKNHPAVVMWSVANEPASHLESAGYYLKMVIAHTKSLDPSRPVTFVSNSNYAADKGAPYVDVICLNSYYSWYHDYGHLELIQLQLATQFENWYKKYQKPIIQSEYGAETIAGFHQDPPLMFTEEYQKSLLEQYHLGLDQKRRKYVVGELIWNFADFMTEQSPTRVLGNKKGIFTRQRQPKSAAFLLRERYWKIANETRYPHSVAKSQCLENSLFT

Consider “IGF-II (wild-type, non-biotinylated control ligand) (from UniProt P01344 25-91)”, for which the Chemiluminescence Intensity with insulin receptor (IR) [1] turned out to be 1330; with insulin receptor (IR) [2], 1380; with insulin receptor (IR) [3], 176; with insulin receptor (IR) [4], 105; with insulin receptor (IR) [5], 1190; in the experiment with insulin receptor (IR) [6], 222. Besides, the Chemiluminescence Intensity came out at 1490 with insulin receptor (IR) [7]; 1480 in the experiment with insulin receptor (IR) [8]; 605 with insulin receptor (IR) [9]; 368 with insulin receptor (IR) [10]; 379 with insulin receptor (IR) [11]; 644 with insulin receptor (IR) [12]. Moreover, the Chemiluminescence Intensity amounted to 1430 with insulin receptor (IR) [13]; 991 with insulin receptor (IR) [14]; 1110 with insulin receptor (IR) [15]; 828 with insulin receptor (IR) [16]; 70 with insulin receptor (IR) [17]; 1320 with insulin receptor (IR) [18]. The Chemiluminescence Intensity with insulin receptor (IR) [19] worked out at 1250; with insulin receptor (IR) [20] it was 919; with insulin receptor (IR) [21] it was 140; in the experiment with insulin receptor (IR) [22], 1480; in the experiment with insulin receptor (IR) [23], 1480; with insulin receptor (IR) [24], 356. In addition, the Chemiluminescence Intensity in the experiment with insulin receptor (IR) [25] came to 1370; in the experiment with insulin receptor (IR) [26], 1420; in the experiment with insulin receptor (IR) [27] it was 1450; with insulin receptor (IR) [28], 268; with insulin receptor (IR) [29], 1410; with insulin receptor (IR) [30] it was 874. In addition, the Chemiluminescence Intensity came to 566 in the experiment with insulin receptor (IR) [31], 1220 with insulin receptor (IR) [32] and 1480 in the experiment with insulin receptor (IR) [33].
Turning to “Insulin (non-biotinylated control) (from UniProt P01308 25-54; P01308 90-110) (ligand)”, the Chemiluminescence Intensity in the experiment with insulin receptor (IR) [1] came out at 1250; with insulin receptor (IR) [2], 885; with insulin receptor (IR) [3] it was 25; with insulin receptor (IR) [4] it was 25.5; with insulin receptor (IR) [5], 750; with insulin receptor (IR) [6], 34. Besides, the Chemiluminescence Intensity with insulin receptor (IR) [7] worked out at 780; with insulin receptor (IR) [8], 1180; in the experiment with insulin receptor (IR) [9], 122; in the experiment with insulin receptor (IR) [10], 61.5; in the experiment with insulin receptor (IR) [11] it was 57; with insulin receptor (IR) [12] it was 102. The Chemiluminescence Intensity with insulin receptor (IR) [13] was 832; with insulin receptor (IR) [14], 479; in the experiment with insulin receptor (IR) [15], 498; with insulin receptor (IR) [16] it was 243; with insulin receptor (IR) [17] it was 38; with insulin receptor (IR) [18], 634. For the same substance, the Chemiluminescence Intensity with insulin receptor (IR) [19] amounted to 1460; in the experiment with insulin receptor (IR) [20], 229; with insulin receptor (IR) [21] it was 13; with insulin receptor (IR) [22], 753; with insulin receptor (IR) [23], 1000; with insulin receptor (IR) [24], 66. In addition, the Chemiluminescence Intensity worked out at 1340 with insulin receptor (IR) [25]; 1260 in the experiment with insulin receptor (IR) [26]; 517 in the experiment with insulin receptor (IR) [27]; 43 in the experiment with insulin receptor (IR) [28]; 1050 in the experiment with insulin receptor (IR) [29]; 236 in the experiment with insulin receptor (IR) [30]. For the same substance, the Chemiluminescence Intensity amounted to 141 in the experiment with insulin receptor (IR) [31], 517 with insulin receptor (IR) [32] and 503 with insulin receptor (IR) [33].
Consider “Insulin-biotin (biotinylated insulin) (from UniProt P01308 25-54; P01308 90-110) (ligand)”, for which the Chemiluminescence Intensity with insulin receptor (IR) [34] turned out to be 1790; with insulin receptor (IR) [35], 1690; in the experiment with insulin receptor (IR) [36] it was 1890; in the experiment with insulin receptor (IR) [37], 2070; in the experiment with insulin receptor (IR) [38], 1950; in the experiment with insulin receptor (IR) [39], 1840. In addition, the Chemiluminescence Intensity with insulin receptor (IR) [40] is 2010; with insulin receptor (IR) [41] it was 1920; with insulin receptor (IR) [42] it was 2180; with insulin receptor (IR) [43], 1870; with insulin receptor (IR) [44] it was 1960; in the experiment with insulin receptor (IR) [45], 1940.
For “periodate/borohydride modified ß-glucuronidase (enzyme)”, in [46], the ConA binding activity lost was found to be 60%.
